Legend:
[1] = target: T1, recombinant human FHp43, P08603
T1 chain: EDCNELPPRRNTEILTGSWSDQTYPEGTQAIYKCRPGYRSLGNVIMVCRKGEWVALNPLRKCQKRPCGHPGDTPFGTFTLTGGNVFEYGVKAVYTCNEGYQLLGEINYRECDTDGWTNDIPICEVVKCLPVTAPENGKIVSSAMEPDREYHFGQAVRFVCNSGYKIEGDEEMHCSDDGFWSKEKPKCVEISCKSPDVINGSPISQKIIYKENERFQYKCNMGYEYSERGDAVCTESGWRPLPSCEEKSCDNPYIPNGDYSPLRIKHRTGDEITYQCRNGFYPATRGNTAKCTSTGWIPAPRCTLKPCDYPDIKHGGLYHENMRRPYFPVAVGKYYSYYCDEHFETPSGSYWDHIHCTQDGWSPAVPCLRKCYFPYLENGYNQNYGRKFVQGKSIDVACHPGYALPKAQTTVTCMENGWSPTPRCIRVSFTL

[2] = target: T2, truncated recombinant rat factor H protein SCR1-7
T2 chain: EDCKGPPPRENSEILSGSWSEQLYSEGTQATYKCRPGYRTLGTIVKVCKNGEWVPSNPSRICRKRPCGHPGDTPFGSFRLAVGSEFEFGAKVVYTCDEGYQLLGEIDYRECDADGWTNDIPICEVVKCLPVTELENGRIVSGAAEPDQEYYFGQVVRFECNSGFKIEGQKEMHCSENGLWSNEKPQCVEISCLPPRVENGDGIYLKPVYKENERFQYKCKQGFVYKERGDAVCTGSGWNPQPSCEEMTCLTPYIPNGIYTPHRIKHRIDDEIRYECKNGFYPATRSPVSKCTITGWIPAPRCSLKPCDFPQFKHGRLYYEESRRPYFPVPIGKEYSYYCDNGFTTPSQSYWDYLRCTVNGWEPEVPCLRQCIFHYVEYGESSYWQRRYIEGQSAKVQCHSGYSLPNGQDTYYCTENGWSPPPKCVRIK

B1: human Factor I (protein)
chain: KVTYTSQEDLVEKKCLAKKYTHLSCDKVFCQPWQRCIEGTCVCKLPYQCPKNGTAVCATNRRSFPTYCQQKSLECLHPGTKFLNNGTCTAEGKFSVSLKHGNTDSEGIVEVKLVDQDKTMFICKSSWSMREANVACLDLGFQQGADTQRRFKLSDLSINSTECLHVHCRGLETSLAECTFTKRRTMGYQDFADVVCYTQKADSPMDDFFQCVNGKYISQMKACDGINDCGDQSDELCCKACQGKGFHCKSGVCIPSQYQCNGEVDCITGEDEVGCAGFASVTQEETEILTADMDAERRRIKSLLPKLSCGVKNRMHIRRKRIVGGKRAQLGDLPWQVAIKDASGITCGGIYIGGCWILTAAHCLRASKTHRYQIWTTVVDWIHPDLKRIVIEYVDRIIFHENYNAGTYQNDIALIEMKKDGNKKDCELPRSIPACVPWSPYLFQPNDTCIVSGWGREKDNERVFSLQWGEVKLISNCSKFYGNRFYEKEMECAGTYDGSIDACKGDSGGPLVCMDANNVTYVWGVVSWGENCGKPEFPGVYTKVANYFDWISYHVGRPFISQYNV
cofactor activity (43 kDa a' cleavage band of the C3b alpha-chain, SDS-PAGE/autoradiography); concentration of FHp43 in the assay [1]: exhibit cofactor activity even at low concentrations (10 mM) when incubated with C3b and factor I of the corresponding species

B2: rat Factor I (protein)
chain: KNTPASGQPQEDLVEQKCLLKNYTHHSCDKVFCQPWQKCIEGTCACKLPYQCPKAGTPVCATNGRGYPTYCHLKSFECLHPEIKFSNNGTCTAEEKFNVSLIYGSTDTEGIVQVKLVDQDEKMFICKNSWSTVEANVACFDLGFPLGVRDIQGRFNIPVNHKINSTECLHVRCQGVETSLAECTFTKKSSKAPHGLAGVVCYTQDADFPTSQSFQCVNGKRIPQEKACDGVNDCGDQSDELCCKGCRGQAFLCKSGVCIPNQRKCNGEVDCITGEDESGCEEDKKNKIHKGLARSDQGGETEIETEETEMLTPDMDTERKRIKSLLPKLSCGVKRNTHIRRKRVVGGKPAEMGDYPWQVAIKDGDRITCGGIYIGGCWILTAAHCVRPSRYRNYQVWTSLLDWLKPNSQLAVQGVSRVVVHEKYNGATYQNDIALVEMKKHPGKKECELINSVPACVPWSPYLFQPNDRCIISGWGREKDNQKVYSLRWGEVDLIGNCSRFYPGRYYEKEMQCAGTSDGSIDACKGDSGGPLVCKDVNNVTYVWGIVSWGENCGKPEFPGVYTRVASYFDWISYYVGRPLVSQYNV
cofactor activity (43 kDa a' cleavage band of the C3b alpha-chain, SDS-PAGE/autoradiography); concentration of rat FHSCR1-7 in the assay [2]: exhibit cofactor activity even at low concentrations (10 mM) when incubated with C3b and factor I of the corresponding species
